Test results reported in paper PMC6650547 (mBio, 2019).

Target: SUDV VP35:[change] peptide (residues 1 to 34) (Sudan virus (SUDV), strain Gulu, UniProt Q5XX07 1-34)
Experiment: BLI
Details: both partners purified

B1: His-SUDV-NP(34-367) (domain or fragment)
chain: GIVRQRVIPVYVVNDLEGICQHIIQAFEAGVDFQDNADSFLLLLCLHHAYQGDHRLFLKSDAVQYLEGHGFRFEVREKENVHRLDELLPNVTGGKNLRRTLAAMPEEETTEANAGQFLSFASLFLPKLVVGEKACLEKVQRQIQVHAEQGLIQYPTSWQSVGHMMVIFRLMRTNFLIKFLLIHQGMHMVAGHDANDTVISNSVAQARFSGLLIVKTVLDHILQKTDLGVRLHPLARTAKVKNEVSSFKAALGSLAKHGEYAPFARLLNLSGVNNLEHGLYPQLSAIALGVATAHGSTLAGVNVGEQYQQLREAATEAEKQLQQYAETRELDNLG
**Q.** How did the Kd turn out when B1 was run?
**A.** ~266 nM
